Results from paper doi:10.1101/2021.02.17.431743 (bioRxiv, 2021).
Several values for one entry are separate records, joined by “and”; a condition that tells them apart may be missing. Equal values may be shown once.

Molecular target: the molecule itself
Test: gradient fixation ultracentrifugation

B1: HeV-RBP full ectodomain (head domain with intact stalk domain), dimeric fraction after gradient fixation (domain or fragment)
chain: QNYTRTTDNQALIKESLQSVQQQIKALTDKIGTEIGPKVSLIDTSSTITIPANIGLLGSKISQSTSSINENVNDKCKFTLPPLKIHECNISCPNPLPFREYRPISQGVSDLVGLPNQICLQKTTSTILKPRLISYTLPINTREGVCITDPLLAVDNGFFAYSHLEKIGSCTRGIAKQRIIGVGEVLDRGDKVPSMFMTNVWTPPNPSTIHHCSSTYHEDFYYTLCAVSHVGDPILNSTSWTESLSLIRLAVRPKSDSGDYNQKYIAITKVERGKYDKVMPYGPSGIKQGDTLYFPAVGFLPRTEFQYNDSNCPIIHCKYSKAENCRLSMGVNSKSHYILRSGLLKYNLSLGGDIILQFIEIADNRLTIGSPSKIYNSLGQPVFYQASYSWDTMIKLGDVDTVDPLRVQWRNNSVISRPGQSQCPRFNVCPEVCWEGTYNDAFLIDRLNWVSAGVYLNSNQTAENPVFAVFKDNEILYQVPLAEDDTNAQKTITDCFLLENVIWCISLVEIYDTGDSVIRPKLFAVKIPAQCSES
stoichiometry N: 2 and 4
